Results from patent US20030104635A1, “Screening methods” (AVIDEX LIMITED, priority 1999, published 2003).

Columns and labels:
[1] = target: tax 11-19 peptide-HLA-A2 complex (biotinylated); assay: SPR (BIAcore 3000), sTCR-specific response over repeated injections after compound mixtures
MHC/peptide complex = conditions: cited from earlier work
B7 = conditions: read-out: Kd of CD28-B7 interaction; cited from earlier work
[2] = target: influenza matrix peptide-HLA-A2 complex (biotinylated) (influenza virus); assay: SPR (BIAcore 3000), sTCR-specific response over repeated injections after compound mixtures
[3] = target: HLA-A2 (prepared as described in Example A1 and tagged with a biotin molecule); assay: SPR (BIAcore 3000), sCD8αα-specific response as a percentage of the initial response
[4] = tested on: class I MHC-restricted T cells; conditions: cited from earlier work

Question: With A6 soluble T cell receptor (TCR) as the substance, how does the loss of signal over the run [1] read?
Answer: 33%

Question: With “CD8: T cell coreceptor binding class I MHC/peptide complex” as the substance, how does the “off rate from an MHC/peptide complex” value (MHC/peptide complex) read?
Answer: approximately 10 s^−1

Question: What about the Kd (MHC/peptide complex; read-out: Kd of interaction with MHC/peptide complex) of the same substance?
Answer: ~500 µM

Question: With “CD28: receptor with low affinity interaction with B7” as the substance, how does the Kd (B7) read?
Answer: ~4 µM

Question: What does the source list for JM22 soluble T cell receptor (TCR)?
Answer: loss of signal after 10 mixtures [2]: 10.2%; loss of signal over the run [2]: 9.3%

Question: With “recombinant soluble form of CD8 (sCD8αα) (from UniProt P01732 22-141) (receptor)” as the substance, how does the loss of signal over the run [3] read?
Answer: 3.6%

Question: With “soluble, recombinant CD8: soluble, recombinant CD8 derived from the human coreceptor” as the substance, how does the “inhibition of class I MHC-restricted T cells responses” value [4] read?
Answer: potent inhibitor
